Results taken from patent US20220332804A1 (CSL INNOVATION, published 2022).
Changes are numbered by the printed parent chain.

Columns and labels:
Assay in all cases: SPR, antibody captured, C2 as analyte;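 further: biacore SPR at 37 °C, anti-C2 mAbs captured via goat anti-human IgG on CM5 chips, double-referenced sensorgrams fit to a 1:1 kinetic or steady-state model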
[1] = biological target: T1, human C2 P718A (human, UniProt P06681 21-752)
T1 sequence: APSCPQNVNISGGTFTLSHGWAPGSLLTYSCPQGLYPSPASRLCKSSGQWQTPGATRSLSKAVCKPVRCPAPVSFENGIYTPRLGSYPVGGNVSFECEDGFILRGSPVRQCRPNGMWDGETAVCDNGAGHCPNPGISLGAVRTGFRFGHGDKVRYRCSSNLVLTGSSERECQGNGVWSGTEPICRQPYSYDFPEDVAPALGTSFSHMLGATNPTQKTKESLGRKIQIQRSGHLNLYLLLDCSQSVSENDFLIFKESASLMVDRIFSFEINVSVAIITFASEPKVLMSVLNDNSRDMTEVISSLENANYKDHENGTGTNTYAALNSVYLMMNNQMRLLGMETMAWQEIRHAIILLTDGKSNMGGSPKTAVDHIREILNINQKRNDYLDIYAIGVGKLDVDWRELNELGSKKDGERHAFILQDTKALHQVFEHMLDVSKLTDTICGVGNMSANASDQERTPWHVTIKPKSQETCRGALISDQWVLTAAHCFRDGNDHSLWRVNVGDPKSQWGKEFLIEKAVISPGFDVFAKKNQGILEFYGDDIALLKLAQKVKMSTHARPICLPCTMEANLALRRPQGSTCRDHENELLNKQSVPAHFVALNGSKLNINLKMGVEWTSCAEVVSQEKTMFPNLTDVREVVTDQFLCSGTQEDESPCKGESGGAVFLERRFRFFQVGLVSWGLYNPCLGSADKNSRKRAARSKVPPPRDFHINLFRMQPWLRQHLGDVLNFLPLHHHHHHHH

[2] = biological target: T2, human C2 D417A (human, UniProt P06681 21-752)
T2 sequence: T1 sequence with D397A, A698P

[3] = biological target: T3, human C2 A444S (human, UniProt P06681 21-752)
T3 sequence: T1 sequence with A424S, A698P

[4] = biological target: T4, human C2 N467A (human, UniProt P06681 21-752)
T4 sequence: T1 sequence with N447A, A698P

B1: RF16-226 (antibody, human IgG4 S228P, lambda)
heavy: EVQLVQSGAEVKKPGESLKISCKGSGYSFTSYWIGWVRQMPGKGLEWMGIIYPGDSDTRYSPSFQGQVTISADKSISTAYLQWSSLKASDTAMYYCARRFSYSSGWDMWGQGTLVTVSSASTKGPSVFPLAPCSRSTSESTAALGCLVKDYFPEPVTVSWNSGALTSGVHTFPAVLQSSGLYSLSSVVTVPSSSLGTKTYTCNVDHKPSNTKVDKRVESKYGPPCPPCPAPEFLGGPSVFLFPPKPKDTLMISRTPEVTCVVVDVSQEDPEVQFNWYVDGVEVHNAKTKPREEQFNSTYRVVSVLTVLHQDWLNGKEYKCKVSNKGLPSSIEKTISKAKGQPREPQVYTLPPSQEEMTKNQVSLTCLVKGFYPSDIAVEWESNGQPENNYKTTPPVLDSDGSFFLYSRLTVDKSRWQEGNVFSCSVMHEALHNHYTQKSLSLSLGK
light: SYELTQPPSVSVSPGQTARITCSGDALTSKYVAWYQQKSGLAPLLVIYEDTRRPSGIPAKFSGSSSGSVATLTISGAHGDDEADYYCYSTDASGHQRVFGGGTKLTVLSQPKAAPSVTLFPPSSEELQANKATLVCLISDFYPGAVTVAWKADGSPVKAGVETTKPSKQSNNKYAASSYLSLTPEQWKSHRSYSCQVTHEGSTVEKTVAPTECS
notes: pH-dependent anti-C2 antibody from a phage display library; also called WT
With B1 the Kd [1] was 15.2 nM, the Kd [2] was 17.9 nM and the Kd [3] was 19.8 nM. For the same binder, the Kd [4] was 19.7 nM.
